Results as given in patent US20220064329.

Biological target: mAb0077(OA)
Sequence (chain, as listed by the source, chain 1 of 3): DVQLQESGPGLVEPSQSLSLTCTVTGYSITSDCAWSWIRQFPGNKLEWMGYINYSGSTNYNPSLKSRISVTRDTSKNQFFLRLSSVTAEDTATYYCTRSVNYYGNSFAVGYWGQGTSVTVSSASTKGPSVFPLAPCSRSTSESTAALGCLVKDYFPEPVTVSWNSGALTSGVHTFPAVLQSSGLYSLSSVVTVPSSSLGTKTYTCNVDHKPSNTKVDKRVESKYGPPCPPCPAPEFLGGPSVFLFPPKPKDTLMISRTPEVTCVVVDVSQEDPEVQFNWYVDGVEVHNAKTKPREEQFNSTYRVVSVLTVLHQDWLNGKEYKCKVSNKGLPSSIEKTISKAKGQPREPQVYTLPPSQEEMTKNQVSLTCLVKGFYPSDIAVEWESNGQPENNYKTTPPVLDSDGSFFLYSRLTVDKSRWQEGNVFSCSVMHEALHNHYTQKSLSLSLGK
Sequence (chain, as listed by the source, chain 2 of 3): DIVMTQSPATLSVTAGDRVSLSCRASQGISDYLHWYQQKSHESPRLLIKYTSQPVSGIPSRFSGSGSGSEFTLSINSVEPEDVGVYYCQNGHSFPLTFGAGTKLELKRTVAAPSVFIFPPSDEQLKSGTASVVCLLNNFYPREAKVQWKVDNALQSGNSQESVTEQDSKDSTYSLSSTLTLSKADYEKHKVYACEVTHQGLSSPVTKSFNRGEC
Sequence (chain, as listed by the source, chain 3 of 3): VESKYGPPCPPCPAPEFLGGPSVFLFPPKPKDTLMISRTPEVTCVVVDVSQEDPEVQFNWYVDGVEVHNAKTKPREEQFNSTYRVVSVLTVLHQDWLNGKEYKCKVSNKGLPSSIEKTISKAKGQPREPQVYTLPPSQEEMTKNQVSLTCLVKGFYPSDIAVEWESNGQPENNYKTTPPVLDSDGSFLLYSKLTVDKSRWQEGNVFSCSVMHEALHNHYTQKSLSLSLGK

B1: recombinant human activated Factor VII (FVIIa) (protein)
chain 1: ANAFLEELRPGSLERECKEEQCSFEEAREIFKDAERTKLFWISYSDGDQCASSPCQNGGSCKDQLQSYICFCLPAFEGRNCETHKDDQLICVNENGGCEQYCSDHTGTKRSCRCHEGYSLLADGVSCTPTVEYPCGKIPILEKRNASKPQGR
chain 2: IVGGKVCPKGECPWQVLLLVNGAQLCGGTLINTIWVVSAAHCFDKIKNWRNLIAVLGEHDLSEHDGDEQSRRVAQVIIPSTYVPGTTNHDIALLRLHQPVVLTDHVVPLCLPERTFSERTLAFVRFSLVSGWGQLLDRGATALELMVLNVPRLMTQDCLQQSRKVGDSPNITEYMFCAGYSDGSKDSCKGDSGGPHATHYRGTWYLTGIVSWGQGCATVGHFGVYTRVSQYIEWLQKLMRSEPRPGVLLRAPFP
Km of FX activation by FVIIa/PS:PC with 200 nM antibody: 0.089 µM
Km of FX activation by TF-FVIIa with 200 nM antibody: 0.0039 µM
kcat of FX activation by FVIIa/PS:PC with 200 nM antibody: 0.00026 s⁻¹
